T1: HDP1 homeodomain-like (Plasmodium falciparum, UniProt Q8IKH4 2990-3078)
T1 sequence: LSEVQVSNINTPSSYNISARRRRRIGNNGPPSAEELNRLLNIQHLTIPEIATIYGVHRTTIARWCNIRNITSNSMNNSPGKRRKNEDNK

T2: SIP2 D1 (Plasmodium falciparum, UniProt C6KSN9 177-235)
T2 sequence: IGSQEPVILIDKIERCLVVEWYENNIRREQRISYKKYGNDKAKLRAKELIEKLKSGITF

B1: GTGCAC_negctrl_site308 (dsDNA)
DNA 1: TAATAATAGTACTGACATCAAAATCTTATTAAAAAT
DNA 2: ATTTTTAATAAGATTTTGATGTCAGTACTATTATTA
B2: GTGCAC_negctrl_site163 (dsDNA)
DNA 1: ATTTTTTTATAAAATTTTTATATATTATATAAATAT
DNA 2: ATATTTATATAATATATAAAAATTTTATAAAAAAAT
B3: GTGCAC_site9629 (dsDNA)
DNA 1: ATATCAAATAATTTAGTGCACTTTTTTTTTTCTTTT
DNA 2: AAAAGAAAAAAAAAAGTGCACTAAATTATTTGATAT
B4: GTGCAC_site10017 (dsDNA)
DNA 1: ATATATACTATAATAGTGCATTAAAAAAGTAAAAAT
DNA 2: ATTTTTACTTTTTTAATGCACTATTATAGTATATAT
B5: GTGCAC_site9798 (dsDNA)
DNA 1: ATCATATGTATGGTGGTGCATTATGCATGAATTTTA
DNA 2: TAAAATTCATGCATAATGCACCACCATACATATGAT
B6: GTGCAC_site10284 (dsDNA)
DNA 1: TTCTCCTAATAGTTAGTGCACTACATAACTAAGAAA
DNA 2: TTTCTTAGTTATGTAGTGCACTAACTATTAGGAGAA
B7: GTGCAC_negctrl_site23 (dsDNA)
DNA 1: TCCTATATATAAATATTAATATATATGTATTGGTAT
DNA 2: ATACCAATACATATATATTAATATTTATATATAGGA
B8: GTGCAC_site9569 (dsDNA)
DNA 1: TATTTGTATATATGTGTGCACGTATAATCCATTAAA
DNA 2: TTTAATGGATTATACGTGCACACATATATACAAATA
B9: GTGCAC_negctrl_site329 (dsDNA)
DNA 1: TTTTTTTCTTTTTCAAAAAAAAAAAAAAAAAAAATA
DNA 2: TATTTTTTTTTTTTTTTTTTTTGAAAAAGAAAAAAA
B10: GTGCAC_negctrl_site167 (dsDNA)
DNA 1: TTGTATTTACACGATCAACCAAATGGTATATAAATA
DNA 2: TATTTATATACCATTTGGTTGATCGTGTAAATACAA
B11: GTGCAC_negctrl_site61 (dsDNA)
DNA 1: TGTTTTTTGTTCTTTACAAAAAAAAAAAAAAAAAAA
DNA 2: TTTTTTTTTTTTTTTTTTTGTAAAGAACAAAAAACA
B12: GTGCAC_negctrl_site631 (dsDNA)
DNA 1: AGAAGGTAAATAATTTACCCATATATATAAATATAT
DNA 2: ATATATTTATATATATGGGTAAATTATTTACCTTCT
B13: GTGCAC_site10202 (dsDNA)
DNA 1: AAAATGTAGAAATGGGTGCACACACATATATAATAT
DNA 2: ATATTATATATGTGTGTGCACCCATTTCTACATTTT
B14: GTGCAC_site10033 (dsDNA)
DNA 1: TTATAAAATTACTTGGTGCATTAGAATATTTCAATA
DNA 2: TATTGAAATATTCTAATGCACCAAGTAATTTTATAA
B15: GTGCAC_negctrl_site104 (dsDNA)
DNA 1: TTTTTTTTTTCTTTTTTTTATTATATTAACGGAATT
DNA 2: AATTCCGTTAATATAATAAAAAAAAGAAAAAAAAAA
B16: GTGCAC_negctrl_site522 (dsDNA)
DNA 1: TTTTTTACGCATAACTTAATATGAGAATCCCTTTCT
DNA 2: AGAAAGGGATTCTCATATTAAGTTATGCGTAAAAAA
B17: GTGCAC_site10490 (dsDNA)
DNA 1: TTTATATTTATTGTTGTGCACAGAACCATATTCGTT
DNA 2: AACGAATATGGTTCTGTGCACAACAATAAATATAAA
B18: GTGCAC_negctrl_site443 (dsDNA)
DNA 1: ATATAATTTGTTATACTAACTTTTTAATTATTGATA
DNA 2: TATCAATAATTAAAAAGTTAGTATAACAAATTATAT
B19: GTGCAC_negctrl_site493 (dsDNA)
DNA 1: TTCTCAAATATAATAAAATTATAAAGTGACCTAACT
DNA 2: AGTTAGGTCACTTTATAATTTTATTATATTTGAGAA
B20: GTGCAC_site10095 (dsDNA)
DNA 1: CTATATATAACCCATGTGCACTTTTTATGTACAATA
DNA 2: TATTGTACATAAAAAGTGCACATGGGTTATATATAG
B21: GTGCAC_negctrl_site554 (dsDNA)
DNA 1: AAAAAAAAAAAATATTGTAGAATATGATGACTTTGT
DNA 2: ACAAAGTCATCATATTCTACAATATTTTTTTTTTTT
B22: GTGCAC_site9574 (dsDNA)
DNA 1: ATCATATTTATGTTGGTGCATTATACATAAAGTTTA
DNA 2: TAAACTTTATGTATAATGCACCAACATAAATATGAT
B23: GTGCAC_negctrl_site520 (dsDNA)
DNA 1: AAAAAAAAATAAATAAATATATATAATATTTATGTT
DNA 2: AACATAAATATTATATATATTTATTTATTTTTTTTT
B24: GTGCAC_site9736 (dsDNA)
DNA 1: ATATTTTATGTGTTGGTGCACATCTTTATTTAAACT
DNA 2: AGTTTAAATAAAGATGTGCACCAACACATAAAATAT
B25: GTGCAC_site9436 (dsDNA)
DNA 1: AACGAGCAAGACGGGGTGCACACAAACTAATATGCC
DNA 2: GGCATATTAGTTTGTGTGCACCCCGTCTTGCTCGTT
B26: GTGCAC_site9474 (dsDNA)
DNA 1: GCCCCCAAATTATGTGTGCACTTTATATTCCTGAGA
DNA 2: TCTCAGGAATATAAAGTGCACACATAATTTGGGGGC
B27: GTGCAC_site9772 (dsDNA)
DNA 1: TATATTATCAAAATGGTGCAATAATTTCTATATTAT
DNA 2: ATAATATAGAAATTATTGCACCATTTTGATAATATA
B28: GTGCAC_site10218 (dsDNA)
DNA 1: GATATATATACATGTGTGCACCATGCAACTTGTTTT
DNA 2: AAAACAAGTTGCATGGTGCACACATGTATATATATC
B29: GTGCAC_negctrl_site350 (dsDNA)
DNA 1: TTCACTTTTTTTTTTTTTTTTTTTTTTTTTTTTATT
DNA 2: AATAAAAAAAAAAAAAAAAAAAAAAAAAAAAGTGAA
B30: GTGCAC_site10094 (dsDNA)
DNA 1: TATTAACAAATTTATGTGCACTGAGGACAAATATAT
DNA 2: ATATATTTGTCCTCAGTGCACATAAATTTGTTAATA
B31: GTGCAC_site9533 (dsDNA)
DNA 1: TTTTCTATTTAATTGGTGCACTGATATATACACATA
DNA 2: TATGTGTATATATCAGTGCACCAATTAAATAGAAAA
B32: GTGCAC_site9920 (dsDNA)
DNA 1: ATAATTATATGATGAGTGCACAATAAAAATATCGTT
DNA 2: AACGATATTTTTATTGTGCACTCATCATATAATTAT
B33: GTGCAC_site9426 (dsDNA)
DNA 1: ACGTGTATTTATTTAGTGCACTTTATATTTTTTCTT
DNA 2: AAGAAAAAATATAAAGTGCACTAAATAAATACACGT

What was measured:
Experiment in all cases: gcPBM; about 25 ug protein; PBS, 1% milk, 0.2 mg/ml BSA, salmon testes DNA, 0.03% Triton X-100
HDP1 homeodomain-like = molecular target: T1, HDP1 homeodomain-like; settings: tags: N-terminal GST (pGEX-4T-1), kept; chain copies: 2; label: surface-attached array probe
SIP2 D1 = molecular target: T2, SIP2 D1; settings: tags: N-terminal GST (pGEX-4T-1), kept; label: surface-attached array probe
AP2-I D3 = AP2-I D3 (Plasmodium falciparum, UniProt Q8IJW6 910-1027); settings: tags: N-terminal GST (pGEX-4T-1), kept; label: surface-attached array probe

| Binder | binding signal (HDP1 homeodomain-like) | binding signal (SIP2 D1) | binding signal (AP2-I D3) |
| --- | --- | --- | --- |
| B1 | 5.97 ln median PBM intensity, better of two orientations | 6.81 ln median PBM intensity, better of two orientations | – |
| B2 | 6.2 ln median PBM intensity, better of two orientations | 6.9 ln median PBM intensity, better of two orientations | – |
| B3 | 10.8 ln median PBM intensity, better of two orientations | – | 12 ln median PBM intensity, better of two orientations |
| B4 | 9.53 ln median PBM intensity, better of two orientations | – | 12 ln median PBM intensity, better of two orientations |
| B5 | 10.4 ln median PBM intensity, better of two orientations | – | 12 ln median PBM intensity, better of two orientations |
| B6 | 11.1 ln median PBM intensity, better of two orientations | – | 12.4 ln median PBM intensity, better of two orientations |
| B7 | 6.35 ln median PBM intensity, better of two orientations | 6.91 ln median PBM intensity, better of two orientations | – |
| B8 | 9.32 ln median PBM intensity, better of two orientations | 11.3 ln median PBM intensity, better of two orientations | – |
| B9 | 5.41 ln median PBM intensity, better of two orientations | 6.85 ln median PBM intensity, better of two orientations | – |
| B10 | 6.23 ln median PBM intensity, better of two orientations | 6.87 ln median PBM intensity, better of two orientations | – |
| B11 | 6.15 ln median PBM intensity, better of two orientations | 6.89 ln median PBM intensity, better of two orientations | – |
| B12 | 6.21 ln median PBM intensity, better of two orientations | 6.91 ln median PBM intensity, better of two orientations | – |
| B13 | 9.58 ln median PBM intensity, better of two orientations | 11.7 ln median PBM intensity, better of two orientations | – |
| B14 | 11.1 ln median PBM intensity, better of two orientations | – | 12.1 ln median PBM intensity, better of two orientations |
| B15 | 6.2 ln median PBM intensity, better of two orientations | 6.89 ln median PBM intensity, better of two orientations | – |
| B16 | 6.33 ln median PBM intensity, better of two orientations | 6.89 ln median PBM intensity, better of two orientations | – |
| B17 | 11.1 ln median PBM intensity, better of two orientations | 10.4 ln median PBM intensity, better of two orientations | – |

| Binder | binding signal (HDP1 homeodomain-like) | binding signal (SIP2 D1) | binding signal (AP2-I D3) |
| --- | --- | --- | --- |
| B18 | 6.13 ln median PBM intensity, better of two orientations | 6.82 ln median PBM intensity, better of two orientations | – |
| B19 | 6.1 ln median PBM intensity, better of two orientations | 6.88 ln median PBM intensity, better of two orientations | – |
| B20 | 10.1 ln median PBM intensity, better of two orientations | 10.2 ln median PBM intensity, better of two orientations | – |
| B21 | 6.29 ln median PBM intensity, better of two orientations | 6.85 ln median PBM intensity, better of two orientations | – |
| B22 | 10.4 ln median PBM intensity, better of two orientations | – | 12.1 ln median PBM intensity, better of two orientations |
| B23 | 6.16 ln median PBM intensity, better of two orientations | 6.84 ln median PBM intensity, better of two orientations | – |
| B24 | 9.88 ln median PBM intensity, better of two orientations | 10.9 ln median PBM intensity, better of two orientations | – |
| B25 | 9.89 ln median PBM intensity, better of two orientations | 11.8 ln median PBM intensity, better of two orientations | – |
| B26 | 9.62 ln median PBM intensity, better of two orientations | 11.2 ln median PBM intensity, better of two orientations | – |
| B27 | 10 ln median PBM intensity, better of two orientations | – | 12 ln median PBM intensity, better of two orientations |
| B28 | 9.57 ln median PBM intensity, better of two orientations | 11.1 ln median PBM intensity, better of two orientations | – |
| B29 | 6 ln median PBM intensity, better of two orientations | 6.86 ln median PBM intensity, better of two orientations | – |
| B30 | 10.3 ln median PBM intensity, better of two orientations | 10.5 ln median PBM intensity, better of two orientations | – |
| B31 | 10.5 ln median PBM intensity, better of two orientations | 11.6 ln median PBM intensity, better of two orientations | – |
| B32 | 9.38 ln median PBM intensity, better of two orientations | – | 11.2 ln median PBM intensity, better of two orientations |
| B33 | 11.3 ln median PBM intensity, better of two orientations | 10.7 ln median PBM intensity, better of two orientations | – |

Reference: publication PMC11417369, “DNA sequence and chromatin differentiate sequence-specific transcription factor binding in the human malaria parasite Plasmodium falciparum”
